These results are taken from the DeepSol protein solubility set.

This series is described as follows: soluble on expression in E. coli; label from the status in PepcDB or PDB records.
For the sequence “MWLDRRGWLRVLGHWRYDLRRPSFTRTWSGDKGPMAETVSTQVGTEGGLRASHQQNGDAGGDAKVELSPGPPKPAGREVEPAPVGGEHPSAAAPGPGKHKKRRGATRERVVPPPKKRRTGVSFGDEHFAETSYYFEGGLRKVRPYYFDFRTYCKGRWVGHSLLHVFSTEFRAQPLAYYEAAVRAGRLQLNEKPVQDLNIVLKDNDFLRNTVHRHEPPVTAEPIRLLAENEDVVVVDKPSSIPVHPCGRFRHNTVIFILGKEHQLKELHPLHRLDRLTSGVLMFAKTAAVSERIHEQVRDRQLEKEYVCRVEGEFPTEEVTCKEPILVVSYKVGVCRVDPRGKPCETVFQRLSYNGQSSVVRCRPLTGRTHQIRVHLQFLGHPILNDPIYNSVAWGPSRGRGGYIPKTNEELLRDLVAEHQAKQSLDVLDLCEGDLSPGLTDSTAPSSELGKDDLEELAAAAQKMEEVAEAAPQELDTIALASEKAVETDVMNQETDPLCAECRLVRQDPLPQDLVMFLHALRYKGPGFEYFSPMPAWAQDDWQKD”, the “soluble on expression in E. coli” value was “soluble”.
In the case of “MIKFMSIASGSSGNCYYLSNGNQALLIDAGIPLRSISKALKDHQLPIEGNVVGVLVTHDHADHIRTIGCLGEKFHLPVFATERVHNGINSSRYMDHLPLLSRRNILQEETFRLAGFDITAFPIPHDATENVGYHITAPGFSFTLCTDVGHITDTISHYASKADYLVMEANYDCEMLLSGPYPEFLKERVSGPNGHLSNQETGDFLARTFHPGMKHVWLCHLSKDNNHPDLCWKSIEYRLFSEGIRVGKDMELTVLKRTSPSSLYTLLEDLEHHHHHH” it was “soluble”; in that of “SLSWDSVVERIRIFLVESPIKMARLQGVGNVKGSVKRVLLEVTSADGIVGWGEAAPWEVFTGTPEAAFSALDIYLRPLILGAPIKRVRELMARMDKMLVGHGEAKAAVEMALLDILGKATGLSVADLLGGRVRDRIPLSFSIADPDFDADLERMRAMVPAGHTVFKMKTGVKPHAEELRILETMRGEFGERIDLRLDFNQALTPFGAMKILRDVDAFRPTFIEQPVPRRHLDAMAGFAAALDTPILADESCFDAVDLMEVVRRQAADAISVKIMKCGGLMKAQSLMAIADTAGLPGYGGTLWEGGIALAAGTQLIAATPGISLGCEFYMPHHVLTEDVLEERIANSAGHVIVPDGPGLGISISEASLRGNAKILAER”, “soluble”.
On to “MISIKVLFFGEACQLVGKREEAIDFPEETDYEEIRKTILENYPALQKIEKVMMLAVDQEYANPGDRFELVRFTEIAVIPPLSGG”, for which the “soluble on expression in E. coli” value is “soluble”.
In the case of “MKNIKMPVLVLAAEKDHITPPESVTAFFEKIPSKDKKLLLSDKGHIGLTVSGSSHRKIWPEAIKWVVERSK” it was “not soluble”.
In the case of “MGSDKIHHHHHHMINTKEDFLLLIKQIEQKSGYKKPKAFGIARLDRGQLNKNKILQASFALINYEQNFGSAAIMLEAFMQRGVEIDFNASEFVQTLKLEDIDFALSCFKPFLEEDGHQNIDLLKIIKDKFKDDEFSFVCLFEDKEPLSVESIYLKLYLLSTKKVPLRSINLNGAFGLLSNVAWSDDKPIELEYLRANEMRLKMSNQYPKIDFVDKFPRFLAHIIPEDNTRILESSKVRMGASLAAGTTIMPGASYVNFNAGTTGACMVEGRISSSAIVGEGSDVGGGASILGVLSGTSGNAISVGKACLLGANSVTGIPLGDNCIVDAGIAVLEGTKFLLKDAEELAKLNPYFNFDKEIYKGLELKGLNGLHFRQDSISGAMIVALNKKAVKLNEALH” it was “not soluble”.
In the case of “MGSDKIHHHHHHNGPIVKGSKNYITKKENLEHFNDISMSGSANIIYQQDSSSRIEIYGSDNIVELLETKVNGKTLNIKFKKNVNIIDKGKLEIKVFSPDLNGLTLNGSGGILFANGIHTEGDLKVTINGSGNLGGSTFDTGHLAISIHGSGDVRLKQIDSKTCSASISGSGNITLDGMTGAAKYNISGSGNIKAADLEATDVYAGISGSGNISCFVNGKLGGHVSGSGNVAYKGNPQAIDFPHKKLRKLD” it was “not soluble”; in that of “PTEEWLRYVTTARAKSKVDTFLRRKRRELINRGEERVVSVIRTSESMVSAELLDRIAAYFGFLNRETFFYAVGTGTVSLPESFKKL”, “not soluble”.
As to “MAHHHHHHMPRNRSSGDDGGGGGKRGGRYAAVVEKGENAWKREWSSFMSGVNLKRLRDGTSGVTLKASADIERQLVAREAAPSSSSVAGEHDNGNDVEVNADGIPLGAIASHASFSYLFSSPAERRAERDARERAEAERRQAHKRELMAKKDPLSVLSKHQRAMHNAEQRGLQLDGMTRKERRSFLHLTVTEAQRKAEEQSREFKLHDLMDEKLAWYQQGPHPIDLIAEKLVRRKAEKKGKQLGLKYNYLAPHPSWLAKRAQRRRESLLVGLGKRLIFLERVTGEDKDDATTVPSSEVMVTDPLHHLTVPLSEMGRLLGQHGSASLSAAAAAAADADALVTAAAGSSSGDDIEDVKGADEEGAQHLGGEVDRGHRGDVTAARKKAVSASSAASSAGGCSSASPGKRASGEAGDDGVGNDAAQMRLPDVVVLQDPSRIATSLVRTVARDRTTALAIQQINRTTNFLSSGLVKGPSLRPEDALPGNGLSPRGLGAAPAAAALTPSPKSSMVAASMQDSAANSTKGAATTSRGASAAGRGRRRVRVADGEEEGGERRRHRRGADVSAGESQTKTSKPTASPSPRPRGARPPPTHTHELRDITSRSGPSKSQGGQVSSSKTKRQRANSRYD”, the “soluble on expression in E. coli” value is reported as “not soluble”.
In the case of “MLELNFSQTLGTHCLTLNETLPASGITAIFGVSGAGKTSLINAISGLTRPQKGRIALNGRVLHDAENGICLTPEKRRIGYVFQDARLFPHYKVRGNLRYGMAKSMTGQFDKLVSLLGIEALLDRLPGSLSGGEKQRVAIGRALLTAPELLLLDEPLASLDIPRKRELLPYLQRLAREINIPMLYVSHSLDEILHLADKVMVLEDGQVKAFGPLEEVWGSSVMHPWLPKEQQSSILKVSVLEHHPHYAMTALALGDQHLWVNKLNQPLQSTLRIRIQASDVSLVLQPPQQTSIRNVLRAKVANCYDDNGQVEVQLEIGGRTLWARISPWARDELNIKPGLWLYAQVKSVSITA” it was “not soluble”; in that of “HLQTKTAAKTGEGLSESAIHRTFQQLASGFDTIYGGFGQAPKFPMPHMLMYLLRYDHNTGQENALYNVTKTLDSMANGGIYDHIGYGFARYSTDDEWLVPHFEKMLYDNALLLTAYTEAYQVTQNSRYKEICEQIITFIQREMTHEDGSFFSALDADTEGEEGKYYVWSKEEILKTLGDDLGTLYCQVYDITEEGNFEGKNIPNLIHTKREQIKEDAGLTEKELSLKLEDARQQLLKTREERTYPHVDDKVLTSWNALMIAGLAKAAKVYQEPKYLSLAKDAITFIENKLIIDGRVMVRYRDGEVKNKGFIDDYAFLLWAYLDLYEASFDLSYLQKAKKLTDDMISLFWDEEHGGFYFTGHDAEALIVREKEV”, “not soluble”.
For “MYTIAALYHFTRFADPADLKPALLDLCLAQGVKGTLLLAKEGINGTIAGPRAGIDAVLAHIRALPGCSDLEWKEATSDHPPFGKMKVRLKQEIVTMGQPDVDPRARVGHYVEPEDWNDLIRSDDVVLIDTRNDYEVAIGTFEGAIDPMTESFRDFPAWWEANKERFHNKRVAMFCTGGIRCEKSTNYLLGQGVEDVYHLKGGILRYLEEVPAENSTWQGECFVFDNRVSVGHGLVEGPHELCHGCRRPILPEDRNRPEYEHGVSCHLCIDETSEADKMRFRERQKQIALARARGEDHLATHLEHHHHHH” the value was “soluble”; for “MPNKRNVELLATLKENLERAQGSFFLVNYQGLPAKETHALRQALKQNGARLFVAKNTLIRLALKELGLPELDGLQGPSAVVFYEDPVAAAKTLVQFAKSNPKGIPQVKSGLLQGQILTAKDVEALAELPTMDELRAELVGVLQAPMAELVGVLGGVARELVGILEAYAEKKAA”, “soluble”; for “MGSDKIHHHHHHMPSETIKLTAKFKLKEIPNGLDVLFSTYREIVNFLISYAYENNITSFYRLKKETYKNLRKEYPELPSHYHYTAIDMATKIYRGYRKRRGKAKGKPVFKKEVIMLDDHLFKLDFEKRIVKLSTPSGRIELEFYPAKYHEKFKGWKVGQAWLVKTPKGLFINVVFSREVEIREPENFIGVDLNENNVTLCLPKGEFIQIITHEREIRTGYFVKRRKIQKNLRVGKKREELLEKYGSRERNRVDDLYHKLANKIVELAEKYGGIALEDLTEIRDSIRYSAELNGRLHRWSFRKLQRIIEYKAKLRGIKVIFVNPAYTSTLCPICGGKLSPNGHRVLKCKCGFEADRDVVGSWNVRLKALKMWGVTVPPESHPMKKGGWKVSRIDITQITADQNGYFMRRLRRALLLQ”, “not soluble”.
For “MDIKVIREKLTLTTSITSESVAEYEHDVDECCRLLEHKLELEMEKKLQLSNRIDVVQSQVTELWDRVDKARRRESDISCRVTAWAQHLSEMMNEVKLKKAKMGTTMEISATLSAEIQESLDLLAEKRVIVQRMREEIDYRRHLHKQQLKDLKLDCDREEEKCEYWNDKSAEIEKVVEMLKEQRKSLGERVEEEKRMEQEQKKMLEELEMLLKKTGKKRQILDENANLVASFSSLTEESS” the value was “not soluble”.
For the sequence “MSLDAIEAEREVLIGFLQEFVRAASPNPPGDTRAAAAVIQGFLSARGVPNELLGPQESMPNVVSECEGGRAGPRLVYNGHMDVFPVGDGHGWTRDPWSGDIEEGRLHGRGTCDMKTGTAASVIAYAYLYARRAQLAGSVALTAVSDEETGGRWGTRWLLENDTRWRGDCVLNGEPSSLDTIRFSEKGTLRLKFEVLAAGAHGAYVHRSESPTRIAAALIGRLAEVEAIEPSLPAALKAHLQREDVRRALDVAMGEGAADVVTRTTLNVGVLNGGLKINMIPDRCVFEVDIRLPVGTEPDVVLARLEGILAEFPQASMEVQQWHSTPPNVCAHDHPMVDFIADNAQAIVGRRPVAVPSIGSTDCRYWRRSGVPAYVYGPAPGRMAMSNESVDLDEFIAVAKVHAAAGWDYLNGAAEGHHHHHH”, the “soluble on expression in E. coli” value is reported as “not soluble”.
Consider “PVYVDFDVPADLEDDALEALEVARDTGAVKKGTNETTKSIERGSAELVFVAEDVQPEEIVMHIPELADEKGVPFIFVEQQDDLGHAAGLEVGSAAAAVTDAGAAATVLEEIADKVEELR”, for which the “soluble on expression in E. coli” value was “soluble”.
For “MGSDKIHHHHHHMNWLNLRAIVPSDKQNMPNKKNKAAFARTVTKNGAPDVSDIKNSYDDLMYESGAFSQTAINNLEARARLMGLQPAPAANAKVLELGCSMGGNIITQALYYPDAEFTGIDLSGRQVAQGNAIIEKMGLKNVRLEEKDILTVDESFGKFDYIIVHGIWSWVPDAVKDKIFSICRNNLTEHGIAYISYNVYPGWKRQEQLREIMQFSGRDVLEEPLEARTRKGLDALKALAEILENDKGLGGGGKLPAIQKILNHNFYYIAHEYMEAFNDPIYVNGFIEWANRHRLAYIGDTDLHVSFVSWMAEHTRERILALAGGDYIAKEFYSDILSDRQFRRSLLCREEVGDTVRRDESVAVEVIESLNFRPARGETINFDENDTLLSGIRDVMKTGEPFKTEDVAENLARRFPGLTFDRMKINSQLLLQTILGRFSVSSDNAGKPFFEDHKTYVPARFTDYVAAFVEHGAEAFVRPANRYNESTPSFGYGHLYIMRQLSRPTSKQAVIDAVAENLNIVSTTPDGLTFHPPAEVYVEEILADLADRHFLVSAD” the value was “not soluble”.
